System: HrrA (phosphorylated response regulator) (Corynebacterium glutamicum ATCC 13032)
Assay: EMSA
Conditions: 20 mM Tris-HCl pH 7.5, 50 mM KCl, 10 mM MgCl2, 5% glycerol, 0.5 mM EDTA, 0.005% Triton X-100, 20 min, room temperature, 10 nM DNA with 5-1000 nM HrrA …

| Substance | Kd (apparent Kd) [nM] | Kd (apparent Kd (text misprints 270 μM)) [nM] |
| --- | --- | --- |
| PctaE | 125 | – |
| PcydA (Pcyd) | 350 | – |
| PhmuO | 196 | – |
| PsigC/katA | – | 271 |
